Results as given in patent publication US8741844B2, “Use of mutated antithrombins for treating or preventing coagulation disorders” (Universite Paris-Sud XI, priority 2007, dated 2014).

Assays:
[1] = test system: pentasaccharide bound plasma antithrombin (plasma anti-factor Xa activity), HUVEC surface; test: Rotachrom heparin anti factor Xa assay after pre-incubation of pentasaccharide containing plasma-mutated antithrombin mixture on HUVEC surface; format: cell-based, human; conditions: for virtual pentasaccharide concentration (residual anti-factor Xa activity): 3 μg/mL pentasaccharide
Experimental: Finally to evaluate effect of mutated antithrombin on anti-factor Xa activity in conditions as close as possible to in vivo conditions, Rotachrom® heparin method is used to test anti-factor Xa activity in plasma pre-incubated with mutated antithrombin (0-0.6 g/L, preferably 0.15-0.6 g/L in kinetic buffer), during 30 min at 37° C. on human umbilical vein endothelial cells (HUVEC) in culture. Cells are inoculated at 20 000 cells/cm^2 in 96 well plate and grown to confluence for 24 hours in EGM-2 media (Clonetics, Cambrex). After two wash with phosphate buffer saline (Gibco, Invitrogen) cells are starved for 4 hours in EBM-2 media (Clonetics, Cambrex) and then washed again twice in phosphate buffer saline to prevent excess contamination with heparin present in the culture medium. HUVEC coated wells are then used for 30 min incubation of pentasaccharide containing plasma-mutated antithrombin mixture (125 μl/cm^2) before Rotachrom® heparin assay
To evaluate the role of blood-vessel endothelium, or more precisely, the role of glycosamino-glycans exposed on endothelial cell surface, on competition between natural antithrombin and mutated antithrombin for pentasaccharide binding, the same experiment as described above is done but with pre-incubation of pentasaccharide containing plasma-mutated antithrombin mixture on HUVEC surface (FIG. 8).

[2] = Heparin affinity column elution with NaCl gradient; format: binding
Experimental: Conditioned media are thawed, pooled, salt concentration adjusted to 0.4 M NaCl and then applied on an heparin immobilized column (Hitrap Heparin 5 ml or Heparin-sepharose CL6B 50 ml, GE Biological) equilibrated with 10 mM Tris, or with 20 mM phosphate buffer, 0.4 M NaCl and 0.1 mM EDTA, pH 7.4. The bound proteins are eluted in the same buffer with a gradient from 0.4 M to 2 M NaCl. The fractions eluted from 0.8 M NaCl and more contained only wild type antithrombin or mutated antithrombins with high heparin affinity. […] The collected fractions are pooled and the salt concentration is decreased either by over night dialysis against 10 mM Tris, or 20 mM phosphate, and 0.1 M NaCl, pH 7.4 at 4° C. or applied on an HiPrep 26/10 desalting column equilibrated with 10 mM Tris, or 20 mM phosphate, and 0.1 M NaCl, pH 7.4. The antithrombin is then concentrated by ion exchange chromatography using a “Resource Q” 1 ml column (GE, Biological) equilibrated with 10 mM Tris, or 20 mM phosphate, and 0.1 M NaCl, pH 7.4 and eluted in the same buffer with a NaCl gradient from […] to 0.5 M or 20 mM to 0.5 M. The antithrombin concentration in each elution fraction is estimated by absorbance at 280 nm with an absorption coefficient ε=0.65 g^−1·l·cm^−1 and the integrity of purified wild type antithrombin or mutated antithrombins is tested by western blotting using the same couple of antibodies as described before, and electrophoresis on 10% acrylamide/bisacrylamide gel in native and denaturing conditions followed by coomassie brilliant blue R-250 staining (FIG. 4). Then, the antithrombin preparation is aliquoted and stored at −80° C. before use for functional assay. The same procedure is used to purify plasma antithrombin (used as internal reference) from human plasma.

| Molecule | virtual pentasaccharide concentration (residual anti-factor Xa activity) ([1]; ratio 1/1) [µg/mL] | virtual pentasaccharide concentration (residual anti-factor Xa activity) ([1]; ratio 2/1) [µg/mL] | virtual pentasaccharide concentration (residual anti-factor Xa activity) ([1]; ratio 4/1) [µg/mL] | elution from heparin affinity column compared with wild type antithrombin [2] | effect on anti-factor Xa activity of pentasaccharide ([1]; over-dosing conditions) |
| --- | --- | --- | --- | --- | --- |
| AT-N135Q-R393H: human antithrombin with substitution at 393 by Histidine and at 135 by Glutamine | 1.66 | 0.91 | 0.26 | higher ionic strength than wild type antithrombin | – |
| AT-N135Q-Pro394: human antithrombin with Proline inserted between 393 and 394 and substitution at 135 by Glutamine (protein, listed as Homo sapiens) HGSPVDICTAKPRDIPMNPMCIYRSPEKKATEDEGSEQKIPEATNRRVWELSKANSRFATTFYQHLADSKNDNDNIFLSPLSISTAFAMTKLGACNDTLQQLMEVFKFDTISEKTSDQIHFFFAKLNCRLYRKAQKSSKLVSANRLFGDKSLTFNETYQDISELVYGAKLQPLDFKENAEQSRAAINKWVSNKTEGRITDVIPSEAINELTVLVLVNTIYFKGLWKSKFSPENTRKELFYKADGESCSASMMYQEGKFRYRRVAEGTQVLELPFKGDDITMVLILPKPEKSLAKVEKELTPEVLQEWLDELEEMMLVVHMPRFRIEDGFSLKEQLQDMGLVDLFSPEKSKLPGIVAEGRDDLYVSDAFHKAFLEVNEEGSEAAASTAVVIAGRPSLNPNRVTFKANRPFLVFIREVPLNTIIFMGRVANPCVK | 1.69 | 0.94 | 0.27 | higher ionic strength than wild type antithrombin | – |
| AT-Pro394: human antithrombin with insertion of a Proline between positions 393 and 394 (protein, listed as Homo sapiens) HGSPVDICTAKPRDIPMNPMCIYRSPEKKATEDEGSEQKIPEATNRRVWELSKANSRFATTFYQHLADSKNDNDNIFLSPLSISTAFAMTKLGACNDTLQQLMEVFKFDTISEKTSDQIHFFFAKLNCRLYRKANKSSKLVSANRLFGDKSLTFNETYQDISELVYGAKLQPLDFKENAEQSRAAINKWVSNKTEGRITDVIPSEAINELTVLVLVNTIYFKGLWKSKFSPENTRKELFYKADGESCSASMMYQEGKFRYRRVAEGTQVLELPFKGDDITMVLILPKPEKSLAKVEKELTPEVLQEWLDELEEMMLVVHMPRFRIEDGFSLKEQLQDMGLVDLFSPEKSKLPGIVAEGRDDLYVSDAFHKAFLEVNEEGSEAAASTAVVIAGRPSLNPNRVTFKANRPFLVFIREVPLNTIIFMGRVANPCVK | – | – | – | – | decreases anti-factor Xa activity |
| AT-N135Q-ΔR393: human antithrombin with deletion of position 393 and substitution at 135 by Glutamine (protein, listed as Homo sapiens) HGSPVDICTAKPRDIPMNPMCIYRSPEKKATEDEGSEQKIPEATNRRVWELSKANSRFATTFYQHLADSKNDNDNIFLSPLSISTAFAMTKLGACNDTLQQLMEVFKFDTISEKTSDQIHFFFAKLNCRLYRKAQKSSKLVSANRLFGDKSLTFNETYQDISELVYGAKLQPLDFKENAEQSRAAINKWVSNKTEGRITDVIPSEAINELTVLVLVNTIYFKGLWKSKFSPENTRKELFYKADGESCSASMMYQEGKFRYRRVAEGTQVLELPFKGDDITMVLILPKPEKSLAKVEKELTPEVLQEWLDELEEMMLVVHMPRFRIEDGFSLKEQLQDMGLVDLFSPEKSKLPGIVAEGRDDLYVSDAFHKAFLEVNEEGSEAAASTAVVIAGSLNPNRVTFKANRPFLVFIREVPLNTIIFMGRVANPCVK | – | – | – | higher ionic strength than wild type antithrombin | – |
| AT-N135Q-ΔS394: human antithrombin with deletion of position 394 and substitution at 135 by Glutamine (protein, listed as Homo sapiens) HGSPVDICTAKPRDIPMNPMCIYRSPEKKATEDEGSEQKIPEATNRRVWELSKANSRFATTFYQHLADSKNDNDNIFLSPLSISTAFAMTKLGACNDTLQQLMEVFKFDTISEKTSDQIHFFFAKLNCRLYRKAQKSSKLVSANRLFGDKSLTFNETYQDISELVYGAKLQPLDFKENAEQSRAAINKWVSNKTEGRITDVIPSEAINELTVLVLVNTIYFKGLWKSKFSPENTRKELFYKADGESCSASMMYQEGKFRYRRVAEGTQVLELPFKGDDITMVLILPKPEKSLAKVEKELTPEVLQEWLDELEEMMLVVHMPRFRIEDGFSLKEQLQDMGLVDLFSPEKSKLPGIVAEGRDDLYVSDAFHKAFLEVNEEGSEAAASTAVVIAGRLNPNRVTFKANRPFLVFIREVPLNTIIFMGRVANPCVK | – | – | – | higher ionic strength than wild type antithrombin | – |
| AT-N135Q-ΔR393-S394: human antithrombin with deletion of positions 393 and 394 and substitution at 135 by Glutamine (protein, listed as Homo sapiens) HGSPVDICTAKPRDIPMNPMCIYRSPEKKATEDEGSEQKIPEATNRRVWELSKANSRFATTFYQHLADSKNDNDNIFLSPLSISTAFAMTKLGACNDTLQQLMEVFKFDTISEKTSDQIHFFFAKLNCRLYRKAQKSSKLVSANRLFGDKSLTFNETYQDISELVYGAKLQPLDFKENAEQSRAAINKWVSNKTEGRITDVIPSEAINELTVLVLVNTIYFKGLWKSKFSPENTRKELFYKADGESCSASMMYQEGKFRYRRVAEGTQVLELPFKGDDITMVLILPKPEKSLAKVEKELTPEVLQEWLDELEEMMLVVHMPRFRIEDGFSLKEQLQDMGLVDLFSPEKSKLPGIVAEGRDDLYVSDAFHKAFLEVNEEGSEAAASTAVVIAGLNPNRVTFKANRPFLVFIREVPLNTIIFMGRVANPCVK | – | – | – | higher ionic strength than wild type antithrombin | – |
